Paper PMC12151214

B1: GFP-HMGA1 (WT) [human] / mCherry-LacI-CHFR [human] (parent)
chain 1: MSESSSKSSQPLASKQEKDGTEKRGRGRPRKQPPVSPGTALVGSQKEPSEVPTPKRPRGRPKGSKNKGAAKTRKTTTTPGRKPRGRPKKLEKEEEEGISQESSEEEQ
chain 2: MERPEEGKQSPPPQPWGRLLRLGAEEGEPHVLLRKREWTIGRRRGCDLSFPSNKLVSGDHCRIVVDEKSGQVTLEDTSTSGTVINKLKVVKKQTCPLQTGDVIYLVYRKNEPEHNVAYLYESLSEKQGMTQESFEANKENVFHGTKDTSGAGAGRGADPRVPPSSPATQVCFEEPQPSTSTSDLFPTASASSTEPSPAGRERSSSCGSGGGGISPKGSGPSVASDEVSSFASALPDRKTASFSSLEPQDQEDLEPVKKKMRGDGDLDLNGQLLVAQPRRNAQTVHEDVRAAAGKPDKMEETLTCIICQDLLHDCVSLQPCMHTFCAACYSGWMERSSLCPTCRCPVERICKNHILNNLVEAYLIQHPDKSRSEEDVQSMDARNKITQDMLQPKVRRSFSDEEGSSEDLLELSDVDSESSDISQPYVVCRQCPEYRRQAAQPPHCPAPEGEPGAPQALGDAPSTSVSLTTAVQDYVCPLQGSHALCTCCFQPMPDRRAEREQDPRVAPQQCAVCLQPFCHLYWGCTRTGCYGCLAPFCELNLGDKCLDGVLNNNSYESDILKNYLATRGLTWKNMLTESLVALQRGVFLLSDYRVTGDTVLCYCCGLRSFRELTYQYRQNIPASELPVAVTSRPDCYWGRNCRTQVKAHHAMKFNHICEQTRFKN

Variants of: B1
Experiment: LacI-LacO fluorescence colocalization assay (GFP-HMGA1 foci intensity at LacO array, ImageJ)
Conditions: with mCherry-LacI-CHFR [human]; U2OS-265 cells cotransfected for 24 h; parent: 1.5; read off a plot

Row | response | Variant
1 | 1 | chain 1 E50Q
